Assay results: article doi:10.1101/2025.05.20.653754 (bioRxiv, 2025)

What was measured:
[1] = biological target: full-length Physcomitrium patens DUR3 (PpDUR3) fused with C-terminal GFP (Physcomitrium patens); assay: SEC
[2] = biological target: full-length maize DUR3 fused with C-terminal GFP (Zea mays L.); assay: SEC
[3] = biological target: maize DUR3 (ZmDUR3) with a C-terminal Strep-tag (Zea mays L.); assay: cryo-EM structure
[4] = biological target: the molecule itself; assay: SEC

In the case of “full-length Physcomitrium patens DUR3 (PpDUR3) fused with C-terminal GFP (natural protein)”, the stoichiometry N [1] is reported as 4.

Work on “full-length maize DUR3 fused with C-terminal GFP (natural protein)” yielded a stoichiometry N [2] of 4.

For “maize DUR3 (ZmDUR3) with a C-terminal Strep-tag (natural protein)”, the stoichiometry N [3] was 4.

B1: full-length Arabidopsis thaliana DUR3 fused with C-terminal GFP (natural protein, UniProt F4KD71 1-704, looked up)
chain: MATCPPFDFSTKYYDGDGGCQRQSSFFGGTTVLDQGVGYAVILGFGAFFAVFTSFLVWLEKRYVGARHTSEWFNTAGRNVKTGLIASVIVSQWTWAATILQSSNVAWQYGVSGPFWYASGATIQVLLFGVMAIEIKRKAPNAHTVCEIVKARWGTATHIVFLVFCLATNVVVTAMLLLGGSAVVNALTGVNLYAASFLIPLGVVVYTLAGGLKATFLASYVHSVIVHVALVVFVFLVYTSSKELGSPSVVYDRLKDMVAKSRSCTEPLSHHGQACGPVDGNFRGSYLTMLSSGGAVFGLINIVGNFGTVFVDNGYWVSAIAARPSSTHKGYLLGGLVWFAVPFSLATSLGLGALALDLPISKDEADRGLVPPATAIALMGKSGSLLLLTMLFMAVTSAGSSELIAVSSLFTYDIYRTYINPRATGRQILKISRCAVLGFGCFMGILAVVLNKAGVSLGWMYLAMGVLIGSAVIPIAFMLLWSKANAFGAILGATSGCVFGIITWLTTAKTQYGRVDLDSTGKNGPMLAGNLVAILTGGLIHAVCSLVRPQNYDWSTTREIKVVEAYASGDEDVDVPAEELREEKLRRAKAWIVKWGLVFTILIVVIWPVLSLPARVFSRGYFWFWAIVAIAWGTIGSIVIIGLPLVESWDTIKSVCMGMFTNDRVMKKLDDLNHRLRALTMAVPEAEKIYLLELEKTKKNDEEG
With B1 the “stoichiometry N” value [4] was 4.

B2: full-length rice DUR3 (OsDUR3) fused with C-terminal GFP (natural protein, Oryza sativa, UniProt Q7XBS0 1-721, looked up)
chain: MASGVCPPAELGFGAEYYSVVNGVCSRAGSYFGGRPVLTQAVGYAVVLGFGAFFALFTSFLVWLEKRYVGSQHTSEWFNTAGRSVKTGLIASVIVSQWTWAATILQSSNVAWQYGVSGPFWYASGATIQVLLFGVMAIEIKRKAPNAHTVCEIVRARWGTPAHLVFLTFCLLTNVIVTAMLLLGGSAVVNALTGVNVYAASFLIPLGVVVYTLAGGLKATFLASYIHSVVVHAVLVVFVFLVYTSSSKLGSPRVVYDRLMAVASAARDCSADLSRNGQACGPVAGNFKGSYLTMLSSGGLVFGIINIVGNFGTVFVDNGYWMSAIAARPSSTHKGYLLGGLVWFAVPFSLATSLGLGALALDLPLTAAEAAKGLVPPATATALMGKSGSVLLLTMLFMAVTSAGSAELVAVSSLCTYDIYRTYLNPGASGKQILRVSRAVVLGFGCFMGVLAVVLNVAGVSLGWMYLAMGVIVGSAVIPIALLLLWSKANAVGAMGGAVSGCALGVAVWLTVAKVQYGRVNLDTTGRNAPMLAGNLVSILVGGAVHAACSLLRPQHYDWGTSREMITTVESVHAALDDELKEERLVHAKRWIVRWGLVFTAVIVVAWPALSLPARRYSLGYFTLWAAVAIAWGTVGSVVIILLPVAESWTTITKVCAGMFTNDAVYDRLDDVNLRLRAIMGAMPEAEKRYRQLHETEMHPAGTHPANDDDDDNNNNQMMHS
In the case of B2, the “stoichiometry N” value [4] is reported as 4.
